Experimental data published in publication doi:10.1101/2025.07.14.664805.

What follows are substances tested against B. mori CS-1 (Centromeric Subunit protein 1) (Bombyx mori) (assay: SEC-MALS).
Substance “B. mori CS-2 (Centromeric Subunit protein 2) (natural protein)” has a stoichiometry N of 1. Substance “B. mori CS-3 (Centromeric Subunit protein 3) (natural protein)” has a stoichiometry N of 1. For “B. mori CS-4 (Centromeric Subunit protein 4) (natural protein)”, the stoichiometry N was 1.
